As usually defined, the stoichiometry N is a count of units in the complex or per binding partner.

In the assay the target is T1, interferon regulatory factor 3 (IRF3) (human (endogenous in AC16)), Q14653.
T1 chain: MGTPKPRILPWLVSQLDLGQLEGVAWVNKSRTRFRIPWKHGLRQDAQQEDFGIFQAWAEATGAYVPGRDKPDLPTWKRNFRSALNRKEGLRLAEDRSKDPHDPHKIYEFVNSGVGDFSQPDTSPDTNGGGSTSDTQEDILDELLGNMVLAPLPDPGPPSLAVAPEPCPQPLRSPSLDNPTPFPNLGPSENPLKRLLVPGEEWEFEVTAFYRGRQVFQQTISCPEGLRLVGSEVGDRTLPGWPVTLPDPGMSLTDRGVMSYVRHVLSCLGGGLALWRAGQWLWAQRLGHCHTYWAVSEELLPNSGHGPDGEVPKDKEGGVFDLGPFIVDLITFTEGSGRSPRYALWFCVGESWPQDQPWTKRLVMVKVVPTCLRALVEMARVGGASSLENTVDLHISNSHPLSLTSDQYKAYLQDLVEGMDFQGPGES
The experiment in a line: native gel or EMSA. The following applies: remark: other sources report otherwise.

B1: interferon regulatory factor 3 (IRF3), Q14653 1-427 (natural protein)
chain: MGTPKPRILPWLVSQLDLGQLEGVAWVNKSRTRFRIPWKHGLRQDAQQEDFGIFQAWAEATGAYVPGRDKPDLPTWKRNFRSALNRKEGLRLAEDRSKDPHDPHKIYEFVNSGVGDFSQPDTSPDTNGGGSTSDTQEDILDELLGNMVLAPLPDPGPPSLAVAPEPCPQPLRSPSLDNPTPFPNLGPSENPLKRLLVPGEEWEFEVTAFYRGRQVFQQTISCPEGLRLVGSEVGDRTLPGWPVTLPDPGMSLTDRGVMSYVRHVLSCLGGGLALWRAGQWLWAQRLGHCHTYWAVSEELLPNSGHGPDGEVPKDKEGGVFDLGPFIVDLITFTEGSGRSPRYALWFCVGESWPQDQPWTKRLVMVKVVPTCLRALVEMARVGGASSLENTVDLHISNSHPLSLTSDQYKAYLQDLVEGMDFQGPGES
Regarding B1, the stoichiometry N amounted to 2.
